Data set [1] concerns the molecule itself. Description: SEC-MALS; SEC peaks analysed by DLS and SLS/MALS (Dawn Heleos II); purified Redβ proteins injected at 1 mg/ml; species after elution (dilution); without DNA. Background: SEC sorts molecules by how far they enter the pores of the column.
Data set [2] concerns the target T1, wt Redβ, Strep-tag II tagged, purified (λ phage), P03698.
T1 chain: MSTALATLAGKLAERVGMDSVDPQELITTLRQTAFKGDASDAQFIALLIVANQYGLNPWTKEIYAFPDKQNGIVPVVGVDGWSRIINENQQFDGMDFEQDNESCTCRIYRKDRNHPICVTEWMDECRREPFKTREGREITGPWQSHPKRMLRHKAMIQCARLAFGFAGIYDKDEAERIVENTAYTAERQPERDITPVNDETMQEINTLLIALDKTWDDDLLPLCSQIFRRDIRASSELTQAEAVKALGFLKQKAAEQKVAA
Description: ITC; Redα (150 μM) injected in 2 μl steps at 3 min intervals into the cell with Redβ (15 μM); 25 °C; 20 mM HEPES, 150 mM sodium chloride, 1 mM magnesium chloride, 0.5 mM TECP, pH 8; single-site binding model. The settings on record: remark: other sources report otherwise.

For data set [3], the target named is T2, C3Redβ (phage lambda, UniProt P03698 1-185).
T2 sequence: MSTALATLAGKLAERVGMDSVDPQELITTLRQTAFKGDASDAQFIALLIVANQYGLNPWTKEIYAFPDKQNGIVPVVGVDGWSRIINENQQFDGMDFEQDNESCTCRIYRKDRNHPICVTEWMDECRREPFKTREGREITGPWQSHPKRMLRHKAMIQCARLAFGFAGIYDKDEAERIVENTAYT
Description: EMSA; 10 uM protein, 1 uM DNA; weak ssDNA binding (smear), non-complementary Cy5 oligo added; EMSA: 10 uM protein, 1 uM DNA, 20 mM Tris-HCl pH 7.5, 10 mM NaCl, 10 mM MgCl2, 37 C 30 min (+30 min after complementary oligo), 1.2-1.6% agarose, 2x TBE. The settings on record: protein: recombinant; tags: Strep-tag II; N-terminal per Methods, C-terminal per legends; single strand. In general terms: A gel shift assay detects complexes by their altered migration in electrophoresis.

The target in data set [4] is T3, Redβ wt (phage lambda, UniProt P03698 1-261).
T3 sequence: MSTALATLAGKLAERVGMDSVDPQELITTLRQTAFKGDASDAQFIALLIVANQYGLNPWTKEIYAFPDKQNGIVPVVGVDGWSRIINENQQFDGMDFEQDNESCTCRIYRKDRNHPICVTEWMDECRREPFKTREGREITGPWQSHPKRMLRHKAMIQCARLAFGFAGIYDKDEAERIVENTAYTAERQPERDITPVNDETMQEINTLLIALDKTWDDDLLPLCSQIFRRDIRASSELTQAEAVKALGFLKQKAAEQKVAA
The data set is described as above. As to conditions: protein: recombinant; single strand.

Data set [5] has as its target T2, C3Redβ. Description: EMSA; sequential addition of strands; annealed nucleoprotein filament; EMSA: 10 uM protein, 1 uM DNA, 20 mM Tris-HCl pH 7.5, 10 mM NaCl, 10 mM MgCl2, 37 C 30 min (+30 min after complementary oligo), 1.2-1.6% agarose, 2x TBE. The settings on record: protein: recombinant; tags: Strep-tag II; N-terminal per Methods, C-terminal per legends; label: 5'-Cy3 on one strand, 5'-Cy5 on the other; 49 bp, 5' overhang 1 nt at each end as printed; annealed by the protein.

Data set [6] addresses T3, Redβ wt. Described as above. As to conditions: protein: recombinant; label: 5'-Cy3 on one strand, 5'-Cy5 on the other; 49 bp, 5' overhang 1 nt at each end as printed; annealed by the protein.

B1: wt Redβ, Strep-tag II tagged, purified (natural protein, λ phage, UniProt P03698 1-261, looked up)
chain: MSTALATLAGKLAERVGMDSVDPQELITTLRQTAFKGDASDAQFIALLIVANQYGLNPWTKEIYAFPDKQNGIVPVVGVDGWSRIINENQQFDGMDFEQDNESCTCRIYRKDRNHPICVTEWMDECRREPFKTREGREITGPWQSHPKRMLRHKAMIQCARLAFGFAGIYDKDEAERIVENTAYTAERQPERDITPVNDETMQEINTLLIALDKTWDDDLLPLCSQIFRRDIRASSELTQAEAVKALGFLKQKAAEQKVAA
notes: Redβ, single strand annealing protein of λ phage; the ORF cloned into pASK-IBA2; 261 residues by the printed limits of the truncations; also called wild type Redβ; not shown: Strep-tag II, C-terminal, kept
In the case of B1, in data set [1], the “Dist (%) of Species 3 (1 subunit, monomer)” value (from here on “Dist (%)”) was 68.2%.

B2: Redα, Strep-tag II tagged, purified, P03697 1-226 (enzyme)
chain: MTPDIILQRTGIDVRAVEQGDDAWHKLRLGVITASEVHNVIAKPRSGKKWPDMKMSYFHTLLAEVCTGVAPEVNAKALAWGKQYENDARTLFEFTSGVNVTESPIIYRDESMRTACSPDGLCSDGNGLELKCPFTSRDFMKFRLGGFEAIKSAYMAQVQYSMWVTRKNAWYFANYDPRMKREGLHYVVIERDEKYMASFDEIVPEFIEKMDEALAEIGFVFGEQWR
Turning to B2, in data set [2], the Kd came to 7.9 µM and the dH was -9.84 kcal/mol.

B3: C3Redβ (1–185), Strep-tag II tagged, purified (domain or fragment, λ phage, UniProt P03698 1-185, looked up)
chain: MSTALATLAGKLAERVGMDSVDPQELITTLRQTAFKGDASDAQFIALLIVANQYGLNPWTKEIYAFPDKQNGIVPVVGVDGWSRIINENQQFDGMDFEQDNESCTCRIYRKDRNHPICVTEWMDECRREPFKTREGREITGPWQSHPKRMLRHKAMIQCARLAFGFAGIYDKDEAERIVENTAYT
notes: Redβ of λ phage, residues 1-185 (C-terminal truncation C3); also called C3 deletion; C3-truncated Redβ; not shown: Strep-tag II, C-terminal, kept
As for B3, the “Dist (%)” value in data set [1] came out at 9.3%.

B4: N1Redβ (20–261), Strep-tag II tagged, purified (domain or fragment, λ phage, UniProt P03698 20-261, looked up)
chain: SVDPQELITTLRQTAFKGDASDAQFIALLIVANQYGLNPWTKEIYAFPDKQNGIVPVVGVDGWSRIINENQQFDGMDFEQDNESCTCRIYRKDRNHPICVTEWMDECRREPFKTREGREITGPWQSHPKRMLRHKAMIQCARLAFGFAGIYDKDEAERIVENTAYTAERQPERDITPVNDETMQEINTLLIALDKTWDDDLLPLCSQIFRRDIRASSELTQAEAVKALGFLKQKAAEQKVAA
notes: Redβ of λ phage, residues 20-261 (N-terminal truncation N1); also called N1 deletion; not shown: Strep-tag II, C-terminal, kept
Take B4: the “Dist (%)” value in data set [1] was 7.4%.

As for CCATCCGCAAAAATCGAGCTATGCAGGGCGATTCTGCTCTAAGCCATCCG (ssDNA) [Cy3 50-mer ssDNA], the binding result in the data set with C3Redβ [3] and with Redβ wt [4] was “binds” throughout.

B5: 50-mer complementary pair, sequentially added (dsDNA)
DNA 1: CCATCCGCAAAAATCGAGCTATGCAGGGCGATTCTGCTCTAAGCCATCCG
DNA 2: GCGGATGGCTTAGAGCAGAATCGCCCTGCATAGCTCGATTTTTGCGGATG
For B5, the binding result with C3Redβ [5] and with Redβ wt [6] was “binds” throughout.

The term Kd denotes a measure of binding affinity in units of concentration. Higher therefore signals lower affinity.

For the origin of these results see PMC5052646, “DNA annealing by Redβ is insufficient for homologous recombination and the additional requirements involve intra- and inter-molecular interactions” (Scientific Reports, 2016).
